T1: murine G-CSF receptor (G-CSFR) on mouse NFS-60 cells (mouse, UniProt P40223 26-837)
T1 sequence (looked up): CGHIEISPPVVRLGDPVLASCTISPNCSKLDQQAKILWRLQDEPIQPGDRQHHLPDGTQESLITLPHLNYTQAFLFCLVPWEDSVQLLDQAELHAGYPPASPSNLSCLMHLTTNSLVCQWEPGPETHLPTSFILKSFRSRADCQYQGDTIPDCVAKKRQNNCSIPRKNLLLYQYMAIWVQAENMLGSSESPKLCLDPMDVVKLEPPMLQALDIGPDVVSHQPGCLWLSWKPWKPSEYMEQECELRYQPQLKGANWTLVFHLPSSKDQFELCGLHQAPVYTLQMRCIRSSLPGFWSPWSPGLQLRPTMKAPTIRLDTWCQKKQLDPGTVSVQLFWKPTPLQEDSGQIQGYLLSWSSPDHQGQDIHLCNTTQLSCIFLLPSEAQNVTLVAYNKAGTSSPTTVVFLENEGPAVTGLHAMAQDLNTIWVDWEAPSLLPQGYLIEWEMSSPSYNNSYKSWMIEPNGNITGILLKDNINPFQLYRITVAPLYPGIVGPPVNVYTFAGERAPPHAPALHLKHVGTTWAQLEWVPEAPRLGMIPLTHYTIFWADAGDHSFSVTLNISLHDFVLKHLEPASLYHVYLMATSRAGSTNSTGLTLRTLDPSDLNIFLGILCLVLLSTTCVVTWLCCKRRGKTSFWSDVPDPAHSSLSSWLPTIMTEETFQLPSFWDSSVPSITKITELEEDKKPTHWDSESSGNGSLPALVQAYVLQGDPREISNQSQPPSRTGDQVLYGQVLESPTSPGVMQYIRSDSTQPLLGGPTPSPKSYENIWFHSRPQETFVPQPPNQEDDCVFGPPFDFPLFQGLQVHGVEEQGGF

T2: Factor XIIa (activated Factor XII) (UniProt P00748 20-615, limits assumed)
T2 sequence (looked up): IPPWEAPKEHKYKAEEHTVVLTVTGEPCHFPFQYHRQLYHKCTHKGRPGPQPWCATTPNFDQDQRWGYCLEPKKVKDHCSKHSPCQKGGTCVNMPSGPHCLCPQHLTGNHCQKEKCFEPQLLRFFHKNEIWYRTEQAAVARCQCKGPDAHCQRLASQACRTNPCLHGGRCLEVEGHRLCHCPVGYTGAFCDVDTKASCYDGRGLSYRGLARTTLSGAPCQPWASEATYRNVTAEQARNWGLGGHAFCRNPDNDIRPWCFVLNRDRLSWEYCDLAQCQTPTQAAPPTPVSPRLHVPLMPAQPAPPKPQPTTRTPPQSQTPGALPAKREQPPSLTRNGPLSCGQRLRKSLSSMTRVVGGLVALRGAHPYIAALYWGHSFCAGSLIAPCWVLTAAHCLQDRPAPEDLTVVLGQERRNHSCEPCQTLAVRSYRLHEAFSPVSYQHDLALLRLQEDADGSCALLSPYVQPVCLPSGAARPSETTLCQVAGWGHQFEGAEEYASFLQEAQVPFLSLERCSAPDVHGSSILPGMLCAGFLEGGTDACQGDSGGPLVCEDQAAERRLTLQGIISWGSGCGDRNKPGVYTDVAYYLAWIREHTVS

B1: VR81, mouse monoclonal IgG1κ antibody against the extracellular domain of murine G-CSFR (antibody, V domains shown)
VH: EVQLLESGGGLVQPGGSLRLSCAASGFTFSYYAMWWVRQAPGKGLEWVSLIDVSGGVQLYADSVKGRFTISRDNSKNTLYLQMNSLRAEDTAVYYCAKPLIGTRDAFDIWGQGTMVTVSS
VL: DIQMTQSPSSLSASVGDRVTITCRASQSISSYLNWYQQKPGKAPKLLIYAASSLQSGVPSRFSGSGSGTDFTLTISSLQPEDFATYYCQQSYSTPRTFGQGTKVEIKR
B2: ch3F7-mG1L-aFXII (3F7) (antibody, V domains shown)
VH: EVQLLESGGGLVQPGGSLRLSCAASGFTFSKYIMQWVRQAPGKGLEWVSGIRPSGGTTVYADSVKGRFTISRDNSKNTLYLQMNSLRAEDTAVYYCARALPRSGYLISPHYYYYALDVWGQGTTVTVSS
VL: QSELTQPPSASGTPGQRVTISCSGSSSNIGRNYVYWYQQVPGTAPKLLIYSNNQRPSGVPDRFSGSKSGTSASLVISGLRSEDEADYYCAAWDASLRGVFGGGTKLTVLG

How the values were obtained:
[1] = biological target: T1, murine G-CSF receptor (G-CSFR) on mouse …; assay: cell-based or functional assay
[2] = biological target: T2, Factor XIIa (activated Factor XII); assay: cell-based or functional assay

Row | Binder | IC50 (nM), inhibition of mG-CSF-dependent proliferation of mouse NFS-60 cells, stimulated with 0.1 ng/ml mG-CSF [1] | IC50 (nM), inhibition of mG-CSF-dependent proliferation of mouse NFS-60 cells, stimulated with 1.0 ng/ml mG-CSF [1] | IC50 (nM), chromogenic assay of Factor XIIa activity [2]
1 | B1 | 0.00104 nM | 0.00323 nM | 
2 | B2 |  |  | 17.2 nM

Reference: patent publication US20220305133A1 (CSL INNOVATION, published 2022)
